One block for each binder: values may come before it. [ ]: non-standard residue; d: D form. Aib = CC(C)(N)C(=O)O
Tests used:
[1] = target: T1, TFPI (human TFPI-1α), as coated or added in the ELISA and model assays (human, UniProt P10646 29-304, limits assumed); test: ELISA affinity (column head says EC50)
[2] = target: T1, TFPI (human TFPI-1α), as coated or …; test: cell-based or functional assay
murine TFPI = target: T2, murine TFPI (murine, UniProt O54819 29-289, limits assumed); test: not specified
T2 construct: also called murine TFPI-1
T2 sequence (looked up): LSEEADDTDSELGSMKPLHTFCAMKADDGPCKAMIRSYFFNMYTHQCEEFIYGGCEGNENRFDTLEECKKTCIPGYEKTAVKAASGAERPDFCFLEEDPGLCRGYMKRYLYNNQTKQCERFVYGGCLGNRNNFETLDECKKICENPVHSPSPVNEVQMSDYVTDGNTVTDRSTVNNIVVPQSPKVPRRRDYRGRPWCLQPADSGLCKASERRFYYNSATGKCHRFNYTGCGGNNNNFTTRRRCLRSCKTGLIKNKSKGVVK

EC50 [1]: 18.2 nM | FXa Inhibition EC50 [2]: 13.4 nM
Binder: Ac-FQSK[dP]NVHVDGYFC(linear PEG 40 kDa)RL[Aib]AKL-NH2 [JBT2404]

binding result (murine TFPI): binds
B1: JBT2329 (peptide)
peptide: FQSKPNVHVDGYFERLXAKLC
modifications: N-terminal acetyl (Ac); D-proline at 5; Aib at 17; C-terminal C(PEG), linear PEG 41.5 kD; C-terminal amide (NH2)

FXa Inhibition EC50 [2]: 9 nM
B2: JBT2430 (peptide)
peptide: FQSKPNVHVDGYFERLXAKLK
modifications: not fully specified; K(AOA) coupled to PSA (polysialic acid) aldehyde; D-proline at 5; Aib at 17
